Data on one molecule can be found in PMC11663931.

The target of experiment [1] is human recombinant RetGC1 (retinal membrane guanylyl cyclase 1) (human) (UniProt Q02846).
The target is the same in experiment [2]. The source holds these as a separate data set.

Sequence of UniProt Q02846 (Q02846 52-1103): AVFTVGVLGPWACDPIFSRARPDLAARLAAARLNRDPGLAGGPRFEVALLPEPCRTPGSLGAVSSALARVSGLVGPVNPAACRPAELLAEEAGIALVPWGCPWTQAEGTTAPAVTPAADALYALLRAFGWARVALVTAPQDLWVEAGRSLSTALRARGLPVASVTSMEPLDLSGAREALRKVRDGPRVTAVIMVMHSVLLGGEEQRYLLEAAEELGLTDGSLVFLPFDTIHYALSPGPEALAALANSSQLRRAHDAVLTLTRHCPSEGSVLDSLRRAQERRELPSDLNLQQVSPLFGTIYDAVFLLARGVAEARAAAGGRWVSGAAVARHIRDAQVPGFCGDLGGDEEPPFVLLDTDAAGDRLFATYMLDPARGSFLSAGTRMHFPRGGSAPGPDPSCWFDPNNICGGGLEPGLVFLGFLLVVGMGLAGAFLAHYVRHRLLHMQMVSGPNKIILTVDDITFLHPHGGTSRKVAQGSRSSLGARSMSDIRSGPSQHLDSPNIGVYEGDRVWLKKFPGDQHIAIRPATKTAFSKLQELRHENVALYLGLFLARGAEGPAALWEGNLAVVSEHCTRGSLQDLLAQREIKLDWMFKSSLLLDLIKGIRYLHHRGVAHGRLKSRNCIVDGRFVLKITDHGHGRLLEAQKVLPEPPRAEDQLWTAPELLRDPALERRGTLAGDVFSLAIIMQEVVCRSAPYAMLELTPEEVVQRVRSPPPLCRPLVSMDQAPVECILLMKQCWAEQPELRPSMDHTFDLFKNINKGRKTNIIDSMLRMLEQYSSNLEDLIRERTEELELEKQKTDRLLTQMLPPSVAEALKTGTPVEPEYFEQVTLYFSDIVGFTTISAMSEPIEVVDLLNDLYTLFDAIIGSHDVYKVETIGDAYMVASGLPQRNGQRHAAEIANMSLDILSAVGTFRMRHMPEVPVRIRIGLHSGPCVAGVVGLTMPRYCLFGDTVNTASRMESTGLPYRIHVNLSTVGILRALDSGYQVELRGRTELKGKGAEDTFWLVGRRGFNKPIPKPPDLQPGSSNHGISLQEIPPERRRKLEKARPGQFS

B1: purified myristoylated bovine GCAP1 (guanylyl cyclase activating protein 1) (natural protein)
chain: MGNIMDGKSVEELSSTECHQWYKKFMTECPSGQLTLYEFRQFFGLKNLSPWASQYVEQMFETFDFNKDGYIDFMEYVAALSLVLKGKVEQKLRWYFKLYDVDGNGCIDRDELLTIIRAIRAINPCSDSTMTAEEFTDTVFSKIDVNGDGELSLEEFMEGVQKDQMLLDTLTRSLDLTRIVRRLQNGEQDEEGASGRETEAAEADG
modifications: N-myristoylated
B1: the K1/2 of GCAP1 for activating the guanylyl cyclase activity of recombinant RetGC1, with additional 50 mM NaCl instead of bicarbonate (pilot measurement, not shown) in experiment [1] came out at 2 µM. Further, in experiment [2], the K1/2 of GCAP1 for activating the guanylyl cyclase activity of recombinant RetGC1 in HEK293 membranes (hyperbolic fit, 0-10 μM GCAP1), with 50 mM NaHCO3 was 2.9 µM and the K1/2 of GCAP1 for activating the guanylyl cyclase activity of recombinant RetGC1 in HEK293 membranes (hyperbolic fit, 0-10 μM GCAP1), without NaHCO3 was 1.47 µM.
